Measurements from patent US20230250185A1 (ARCELLX, published 2023).
Read-outs that look alike come from different tables or passages of the source.

T1: CD123-Fc (Sino Biological) (human, UniProt P26951 19-305)
T1 construct: Bought reagent; not shown: Fc part of the bought fusion (detected with anti-human Fc HRP)
T1 sequence: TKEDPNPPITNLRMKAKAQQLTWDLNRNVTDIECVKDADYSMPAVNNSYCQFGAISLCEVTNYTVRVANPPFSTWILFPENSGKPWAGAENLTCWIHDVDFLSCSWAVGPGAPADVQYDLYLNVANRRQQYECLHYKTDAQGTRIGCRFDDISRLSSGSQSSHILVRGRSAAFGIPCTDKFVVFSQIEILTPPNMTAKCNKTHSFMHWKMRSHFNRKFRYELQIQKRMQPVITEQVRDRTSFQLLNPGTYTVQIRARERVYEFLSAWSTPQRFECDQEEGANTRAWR


Tests used:
[1] = biological target: T1, CD123-Fc (Sino Biological); experiment: ELISA, serial dilution of MBP fusion normalized for protein concentration; readout CD123-Fc Binding (A450)
[2] = biological target: T1, CD123-Fc (Sino Biological); experiment: as above; remark: listed apart in the source
[3] = biological target: T1, CD123-Fc (Sino Biological); experiment: BLI (Octet RED386): CD123-Fc captured on AHC sensor, Adapter in solution 500-0.69 nM, 25 C, global 1:1 fit

Row | Binder | EC50 [1] [ng/mL] | EC50 [2] [ng/mL] | Kd [3] [nM] | koff [3] [s⁻¹] | kon [3] [M⁻¹ s⁻¹]
1 | 8W9C D domain as MBP fusion (designed binder, Expressed in E. coli and assayed from leak-out supernatant; also called wild-type (8W9C); parental 8W9C; not shown: limits, linker and position relative to the D dom) MGSWDEFGRRLYAIEWRLYALGGSEAELAAFEKEIAAFESELQAYKGKGNPEVEKLREIAAVIRSNLQAYRHN | 7.47 | 6.97 |  |  | 
2 | Adapter protein comprising the 8W9C D domain and P26(Q26-V229) AFP polypeptide (designed binder) MGSWDEFGRRLYAIEWRLYALGGSEAELAAFEKEIAAFESELQAYKGKGNPEVEKLREIAAVIRSNLQAYRHN |  |  | 5.2 | 0.000924 | 177000
3 | Adapter protein comprising the 1F9I D domain and P26(Q26-V229) AFP polypeptide (designed binder) MGSWDEFGRRLYAIEWQLYAQGGTEAELAAFEKEIAAFESELQAYKGKGNPEVEKLRELAAVIRENLQAYRHN |  |  | 7.6 | 0.000646 | 85200
4 | 1J1K D domain as MBP fusion (designed binder, not shown: large carriers; small tags and cut ends, also called 8W9C (G8S)) MGSWDEFSRRLYAIEWRLYALGGSEAELAAFEKEIAAFESELQAYKGKGNPEVEKLREIAAVIRSNLQAYRHN | 3.69 |  |  |  | 
5 | 6Z5E D domain as MBP fusion (designed binder, not shown: large carriers; small tags and cut ends, also called 8W9C (N50S)) MGSWDEFGRRLYAIEWRLYALGGSEAELAAFEKEIAAFESELQAYKGKGSPEVEKLREIAAVIRSNLQAYRHN |  | 3.26 |  |  | 
6 | 4H2H D domain as MBP fusion (designed binder, not shown: large carriers; small tags and cut ends, also called 8W9C (K48I, K55N)) MGSWDEFGRRLYAIEWRLYALGGSEAELAAFEKEIAAFESELQAYKGIGNPEVENLREIAAVIRSNLQAYRHN |  | 5.4 |  |  | 
7 | 5S5W D domain as MBP fusion (designed binder, not shown: limits, linker and position relative to the D dom) MGSWSEFNMRLDAIYERLTALGGSEAELAAFEKEIAAFESELQAYKGKGNPEVEWLRHSAARIRLELQAYRHN | 68.7 | 57.9 |  |  | 
8 | 5B7L D domain as MBP fusion (designed binder, not shown: limits, linker and position relative to the D dom) MGSWIEFNMRLDAIYERLVALGGSEAELAAFEKEIAAFESELQAYKGKGNPEVEWLRKVAANIRLELQAYRHN | 5.12 | 3.72 |  |  | 
